{"source": "patent US20130097734A1", "experiment_in_all_cases": "cell-based or functional assay", "key": {"[1]": {"target": "T1, AVR3a homolog from Phytophthora palmivora designated as L3B (Phytophthora palmivora)", "T1 sequence": "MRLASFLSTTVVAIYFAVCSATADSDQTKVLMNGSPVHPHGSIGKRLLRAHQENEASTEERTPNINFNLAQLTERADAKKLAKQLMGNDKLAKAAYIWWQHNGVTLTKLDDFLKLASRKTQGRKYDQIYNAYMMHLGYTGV"}, "[2]": {"target": "T2, AVR3a homolog from Phytophthora palmivora designated as L6B (Phytophthora palmivora)", "T2 sequence": "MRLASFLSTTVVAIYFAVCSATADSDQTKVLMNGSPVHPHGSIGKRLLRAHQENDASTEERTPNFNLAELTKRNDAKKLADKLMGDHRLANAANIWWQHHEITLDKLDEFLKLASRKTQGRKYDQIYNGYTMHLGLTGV"}, "[3]": {"target": "T3, AVR3a homolog from Phytophthora palmivora designated as L7B (Phytophthora palmivora)", "T3 sequence": "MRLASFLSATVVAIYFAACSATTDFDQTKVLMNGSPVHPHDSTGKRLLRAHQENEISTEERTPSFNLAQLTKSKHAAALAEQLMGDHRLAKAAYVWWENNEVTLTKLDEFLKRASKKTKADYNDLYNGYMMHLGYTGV"}, "[4]": {"target": "AVR3a^KI effector protein of Phytophthora infestans (Phytophthora infestans) (UniProt Q572D3)"}}, "data": [{"binder": "wild-type R3a protein (protein) MEIGLAVGGAFLSSALNVLFDRLAPHGDLLNMFQKHKDHVKLLKKLEDILLGLQIVLSDAENKQASNRHVSQWFNKLQNAVDGAENLIEQVNYEALRLKVEGQHQNLAETSNQQVSDLNLCFSDDFFLNIKDKLEETIETLEVLEKQIGRLGLKEHFGSTKQETRTPSTSLVDDSDIFGRQNDIEDLIDRLLSEDASGKKRTVVPIVGMGGLGKTTLAKAVYNDERVQIHFGLKAWFCVSEAFDAFRITKGLLQEIGSFDLKADDNLNQLQVKLKERLKGKKFLIVLDDVWNDNYNKWDELRNVFVQGDIGSKIIVTTRKESVALMMGNEQISMDNLSTESSWSLFKTHAFENMGPMGHPELEEVGKQIAAKCKGLPLALKTLAGMLRSKSEVEEWKRILRSEIWELPHNDILPALMLSYNDLPAHLKRCFSFCAIFPKDYPFRKEQVIHLWIANGLVPQEDVIIEDSGNQYFLELRSRSLFERVPNPSQGNTENLFLMHDLVNDLAQIASSKLCIRLEESQGSHMLEQSQHLSYSMGYGGEFEKLTPLYKLEQLRTLLPTCIDLPDCCHHLSKRVLHNILPRLTSLRALSLSCYEIVELPNDLFIKLKLLRFLDISRTEIKRLPDSICALYNLETLLLSSCYDLEELPLQMEKLINLRHLDISNTRLLKMPLHLSKLKSLQVLVGAKFLIGGLRMEDLGEVHNLYGSLSVVELQNVVDRREAVKAKMREKNHVDRLYLEWSGSSSADNSQTERDILDELRPHKNIKVVKITGYRGTNFPNWLADPLFLKLVKLSLRNCKNCYSLPALGQLPFLKFLSIREMHGITEVTEEFYGSWSSKKPFNCLEKLEFKDMPEWKQWDLLGSGEFPILEKLLIENCPELSLETVPIQLSSLKSFDVIGSPLVINFPLSILPTTLKRIKISDCQKLKLEQPTGEISMFLEELTLIKCDCIDDISPELLPRARKLWVQDWHNLTRFLIPTATETLDIWNCENVEILSVACGGTQMTSLTIAYCKKLKWLPERMQELLPSLKELHLSNCPEIESFPEGGLPFNLQQLAIRYCKKLVNGRKEWHLQRRLCLTALIIYHDGSDEEIVGGENWELPSSIQRLTIVNLKTLSSQHLKNLTSLQYLFIRGNLPQIQPMLEQGQCSHLTSLQSLQISSLQSLPESALPSSLSHLEISHCPNLQSLPESALPSSLSQLTINNCPNLQSLSESTLPSSLSQLEISFCPNLQYLPLKGMPSSLSELSIYKCPLLKPQLEFDKGEYWPNIAQFPTIKIDRECM", "values": [{"measurement": "Cell death/HR intensity, pBIN::35S-R3a, 1dpi", "setting": "[1]", "value": 0}, {"measurement": "Cell death/HR intensity, pBIN::35S-R3a, 2dpi", "setting": "[1]", "value": 1}, {"measurement": "Cell death/HR intensity, pBIN::35S-R3a, 3dpi", "setting": "[1]", "value": 2}, {"measurement": "Cell death/HR intensity, pVnt1-R3a, 1dpi", "setting": "[1]", "value": 0}, {"measurement": "Cell death/HR intensity, pVnt1-R3a, 2dpi", "setting": "[1]", "value": 0}, {"measurement": "Cell death/HR intensity, pVnt1-R3a, 3dpi", "setting": "[1]", "value": 0}, {"measurement": "Cell death/HR intensity, pBIN::35S-R3a, 1dpi", "setting": "[2]", "value": 0}, {"measurement": "Cell death/HR intensity, pBIN::35S-R3a, 2dpi", "setting": "[2]", "value": 0}, {"measurement": "Cell death/HR intensity, pBIN::35S-R3a, 3dpi", "setting": "[2]", "value": 0}, {"measurement": "Cell death/HR intensity, pVnt1-R3a, 1dpi", "setting": "[2]", "value": 0}, {"measurement": "Cell death/HR intensity, pVnt1-R3a, 2dpi", "setting": "[2]", "value": 0}, {"measurement": "Cell death/HR intensity, pVnt1-R3a, 3dpi", "setting": "[2]", "value": 0}, {"measurement": "Cell death/HR intensity, pBIN::35S-R3a, 1dpi", "setting": "[3]", "value": 0}, {"measurement": "Cell death/HR intensity, pBIN::35S-R3a, 2dpi", "setting": "[3]", "value": 1}, {"measurement": "Cell death/HR intensity, pBIN::35S-R3a, 3dpi", "setting": "[3]", "value": 1}, {"measurement": "Cell death/HR intensity, pVnt1-R3a, 1dpi", "setting": "[3]", "value": 0}, {"measurement": "Cell death/HR intensity, pVnt1-R3a, 2dpi", "setting": "[3]", "value": 1}, {"measurement": "Cell death/HR intensity, pVnt1-R3a, 3dpi", "setting": "[3]", "value": 1}, {"measurement": "Cell death/HR intensity, pBIN::35S-R3a, 1dpi", "setting": "[4]", "value": 1}, {"measurement": "Cell death/HR intensity, pBIN::35S-R3a, 2dpi", "setting": "[4]", "value": 1}, {"measurement": "Cell death/HR intensity, pBIN::35S-R3a, 3dpi", "setting": "[4]", "value": 2}, {"measurement": "Cell death/HR intensity, pVnt1-R3a, 1dpi", "setting": "[4]", "value": 2}, {"measurement": "Cell death/HR intensity, pVnt1-R3a, 2dpi", "setting": "[4]", "value": 3}, {"measurement": "Cell death/HR intensity, pVnt1-R3a, 3dpi", "setting": "[4]", "value": 4}]}]}
